# B1: Pseudomonas aeruginosa inosine 5′-monophosphate dehydrogenase (enzyme, UniProt Q9HXM5 1-489, looked up)
# chain: MLRISQEALTFDDVLLIPGYSEVLPKDVSLKTRLTRGIELNIPLVSAAMDTVTEARLAIAMAQEGGIGIIHKNMGIEQQAAEVRKVKKHETAIVRDPVTVTPSTKIIELLQMAREYGFSGFPVVEQGELVGIVTGRDLRVKPNAGDTVAAIMTPKDKLVTAREGTPLEEMKAKLYENRIEKMLVVDENFYLRGLVTFRDIEKAKTYPLASKDEQGRLRVGAAVGTGADTGERVAALVAAGVDVVVVDTAHGHSKGVIERVRWVKQTFPDVQVIGGNIATAEAAKALAEAGADAVKVGIGPGSICTTRIVAGVGVPQISAIANVAAALEGTGVPLIADGGIRFSGDLAKAMVAGAYCVMMGSMFAGTEEAPGEIELFQGRSYKSYRGMGSLGAMSGSQGSSDRYFQDASAGAEKLVPEGIEGRVPYKGALSAIVHQLMGGLRAAMGYTGSADIQQMRTQPQFVRITGAGMAESHVHDVQITKEAPNYRVG
# notes: Inosine 5′-monophosphate dehydrogenase of Pseudomonas aeruginosa, full-length gene PA3770, amino acids 1-489, synthesised and codon-optimised for E. coli; Modified pET15b: N-terminal His tag followed by a TEV protease cleavage site; The His tag was still present at size-exclusion chromatography; The model holds only residues 1-91, 205-370 and 426-467; also called PaIMPDH; IMPDH; not shown: His …
# Target: the molecule itself
# Test: crystal structure; apo PaIMPDH, sitting-drop vapour diffusion, 0.2 M sodium acetate pH 4.5, 40% MPD, room temperature; space group I4, one subunit in the asymmetric unit, tetramer by the crystallographic fourfold axis; 2.25 Å
protein,measurement,value
B1,stoichiometry N,4
